Consider 18 molecules from patent US6084068, “Elongin A and C functional domains” (Oklahoma Medical Research Foundation, dated 2000).

One experiment deals with wild type Elongin B (rat, UniProt P62870). Kind of experiment: refolded with wild type Elongin B; TSK DEAE-NPR HPLC, SDS-PAGE, silver staining. On the procedure:
Figure 10A: FIG. 10A. […] Aliquots of the indicated column fractions were analyzed by SDS-PAGE, and proteins were visualized by silver staining. Figure 10B: FIG. 10B. N-terminal, C-terminal, and internal Elongin C deletion mutants were assayed for their abilities to form Elongin BC complexes as described.
~6 µg of Elongin B was mixed with ~6 µg of either wild type or mutant Elongin C and diluted 5-fold with 40 mM Hepes-NaOH (pH 7.9), 100 mM KCl, 2 mM DTT, 50 µM ZnSO_4, 0.1 mM EDTA, and 10% (v/v) glycerol. After incubation for 90 min on ice, the mixtures were dialyzed at 4° C. overnight against 40 mM Tris-HCl (pH 7.9), 0.1 mM EDTA, 10% (v/v) glycerol, and 40 mM KCl. Following dialysis, the mixtures were centrifuged at 60,000×g for 15 min at 4° C. The resulting supernatants were applied to TSK DEAE-NPR columns (35 mm×4.6 mm, Toso-Haas) pre-equilibrated in 40 mM Tris-HCl (pH 7.9), 0.1 mM EDTA, 1 mM DTT, 10% (v/v) glycerol, and 40 mM KCl and fractionated using a SMART microchromatography system (Pharmacia) at 8° C. The columns were eluted at 0.3 ml/min with a 3 ml linear gradient from 0.04 to 0.5M KCl in 40 mM Tris-HCl (pH 7.9), 0.1 mM EDTA, 1 mM DTT, and 10% (v/v) glycerol. Aliquots of each column fraction were analyzed by 10% Tris-Tricine SDS-polyacrylamide gel electrophoresis, and the proteins were visualized by silver staining.

The target of experiment [1] is T1, Elongin BC complex (wild type rat Elongin B and C) (rat, UniProt P62870).
T1 chain 1: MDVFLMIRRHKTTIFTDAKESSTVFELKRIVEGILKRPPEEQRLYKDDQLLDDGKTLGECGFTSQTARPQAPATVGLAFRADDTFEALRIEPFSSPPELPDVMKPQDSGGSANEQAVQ
T1 chain 2: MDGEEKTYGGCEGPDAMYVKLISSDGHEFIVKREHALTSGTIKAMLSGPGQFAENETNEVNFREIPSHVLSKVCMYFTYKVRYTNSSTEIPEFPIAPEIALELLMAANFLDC
Kind of experiment: refolded with wild type Elongin B and C; TSK SP-NPR HPLC, SDS-PAGE, silver staining.

B1: Elongin C internal deletion mutant C(Δ91-100) (other)
chain: MDGEEKTYGGCEGPDAMYVKLISSDGHEFIVKREHALTSGTIKAMLSGPGQFAENETNEVNFREIPSHVLSKVCMYFTYKVRYTNSSTEILELLMAANFLDC
For the molecule B1, in the experiment with wild type Elongin B, the binding result is given as “binds”.

B2: Elongin C internal deletion mutant C(Δ51-60) (other)
chain: MDGEEKTYGGCEGPDAMYVKLISSDGHEFIVKREHALTSGTIKAMLSGPGNFREIPSHVLSKVCMYFTYKVRYTNSSTEIPEFPIAPEIALELLMAANFLDC
As to B2, the binding result with wild type Elongin B is given as “binds”.

B3: Elongin C internal deletion mutant C(Δ61-70) (other)
chain: MDGEEKTYGGCEGPDAMYVKLISSDGHEFIVKREHALTSGTIKAMLSGPGQFAENETNEVSKVCMYFTYKVRYTNSSTEIPEFPIAPEIALELLMAANFLDC
Take B3: the binding result in the experiment with wild type Elongin B is “binds”.

B4: Elongin C alanine scanning mutant C(Ala19-21) (other)
chain: MDGEEKTYGGCEGPDAMYAAAISSDGHEFIVKREHALTSGTIKAMLSGPGQFAENETNEVNFREIPSHVLSKVCMYFTYKVRYTNSSTEIPEFPIAPEIALELLMAANFLDC
As for B4, the binding result in the experiment with wild type Elongin B is on record as “binds”.

B5: Elongin C alanine scanning mutant C(Ala28-30) (other)
chain: MDGEEKTYGGCEGPDAMYVKLISSDGHAAAVKREHALTSGTIKAMLSGPGQFAENETNEVNFREIPSHVLSKVCMYFTYKVRYTNSSTEIPEFPIAPEIALELLMAANFLDC
As to B5, in the experiment with wild type Elongin B, the binding result is given as “no binding”.

B6: Elongin C alanine scanning mutant C(Ala25-27) (other)
chain: MDGEEKTYGGCEGPDAMYVKLISSAAAEFIVKREHALTSGTIKAMLSGPGQFAENETNEVNFREIPSHVLSKVCMYFTYKVRYTNSSTEIPEFPIAPEIALELLMAANFLDC
B6: the binding result in the experiment with wild type Elongin B is reported as “no binding”.

B7: Elongin C alanine scanning mutant C(Ala22-24) (other)
chain: MDGEEKTYGGCEGPDAMYVKLAAADGHEFIVKREHALTSGTIKAMLSGPGQFAENETNEVNFREIPSHVLSKVCMYFTYKVRYTNSSTEIPEFPIAPEIALELLMAANFLDC
With B7, the binding result in the experiment with wild type Elongin B was “binds”.

B8: Elongin C deletion mutant C(1-97) (other)
chain: MDGEEKTYGGCEGPDAMYVKLISSDGHEFIVKREHALTSGTIKAMLSGPGQFAENETNEVNFREIPSHVLSKVCMYFTYKVRYTNSSTEIPEFPIAP
For B8, the binding result in the experiment with wild type Elongin B is “binds”.

B9: Elongin C deletion mutant C(23-112) (other)
chain: SSDGHEFIVKREHALTSGTIKAMLSGPGQFAENETNEVNFREIPSHVLSKVCMYFTYKVRYTNSSTEIPEFPIAPEIALELLMAANFLDC
With B9, the binding result in the experiment with wild type Elongin B is “no binding”.

B10: Elongin C deletion mutant C(19-112) (other)
chain: VKLISSDGHEFIVKREHALTSGTIKAMLSGPGQFAENETNEVNFREIPSHVLSKVCMYFTYKVRYTNSSTEIPEFPIAPEIALELLMAANFLDC
As for B10, the binding result with wild type Elongin B is “binds”.

B11: Elongin C deletion mutant C(15-112) (other)
chain: DAMYVKLISSDGHEFIVKREHALTSGTIKAMLSGPGQFAENETNEVNFREIPSHVLSKVCMYFTYKVRYTNSSTEIPEFPIAPEIALELLMAANFLDC
For the molecule B11, the binding result with wild type Elongin B is “binds”.

B12: Elongin C internal deletion mutant C(Δ71-80) (other)
chain: MDGEEKTYGGCEGPDAMYVKLISSDGHEFIVKREHALTSGTIKAMLSGPGQFAENETNEVNFREIPSHVLVRYTNSSTEIPEFPIAPEIALELLMAANFLDC
For B12, the binding result with wild type Elongin B is listed as “binds”.

B13: Elongin C internal deletion mutant C(Δ81-90) (other)
chain: MDGEEKTYGGCEGPDAMYVKLISSDGHEFIVKREHALTSGTIKAMLSGPGQFAENETNEVNFREIPSHVLSKVCMYFTYKPEFPIAPEIALELLMAANFLDC
As to B13, the binding result with wild type Elongin B is recorded as “binds”.

B14: Elongin A internal deletion mutant Δ481-520 (other)
chain: MAAESALQVVEKLQARLAANPDPKKLLKYLKKLSVLPITVDILVETGVGKTVNSFRKHEQVGNFARDLVAQWKKLVPVERNNEAEDQDFEKSNSRKRPRDVPQQEEEAEGNYQESWQASGSQPYSPEHRQKKHRKLPELERPHKVAHGHERRDERKRCHKVSPPYSSDPESSDYGHVQSPPPSSPHQMYTDLSRSPEMDQEPIVSHPKPGKVHSNTFQDRLGVSHLGEHQGKGAVSQNKPHKSSHKEKRPVDARGDEKSSVMGREKSHKASSKEESRRLLSEDSAKEKLPSSVVKKEKDREGNSLKKKLSPALDVASDNHFKKPKHKDSEKIKSDKNKQSVDSVDSGRGTGDPLPRAKDKVPNNLKAQEGKVRTNSDRKSPGSLPKVEEMDMDDEFEQPTMSFESYLSYDQPRKKKKKVVKTSGTALGEKGLKKKDSKSTSKNLNSAQKLPKANENKSDKLQPAGAEPTRPRKVPTDVLPEAGFTGRRMNSKMQVYSGSKCAYLPKMMTLHQQCIRVLKNNIDSIFEVGGVPYSVLEPVLERCTPDQLYRIEECNHVLIEETDQLWKVHCHRDFKEERPEEYESWREMYLRLQDAREQRLRLLTNNIRSAHANKPKGRQAKMAFVNSVAKPPRDVRRRQEKFGTGGAAVPEKVRIKPAPYTTGSSHVPASNSSSSFHSSPEELAYEGPSTSSAHLAPVASSSVSYDPRKPAVKKIAPMMAKTIKAFKNRFSRR
For B14, the binding result in experiment [1] is recorded as “binds”.

B15: Elongin C internal deletion mutant C(Δ31-40) (other)
chain: MDGEEKTYGGCEGPDAMYVKLISSDGHEFITIKAMLSGPGQFAENETNEVNFREIPSHVLSKVCMYFTYKVRYTNSSTEIPEFPIAPEIALELLMAANFLDC
For B15, the binding result with wild type Elongin B is reported as “binds”.

B16: Elongin C internal deletion mutant C(Δ41-50) (other)
chain: MDGEEKTYGGCEGPDAMYVKLISSDGHEFIVKREHALTSGQFAENETNEVNFREIPSHVLSKVCMYFTYKVRYTNSSTEIPEFPIAPEIALELLMAANFLDC
Turning to B16, in the experiment with wild type Elongin B, the binding result is “binds”.

B17: Elongin A internal deletion mutant Δ521-545 (other)
chain: MAAESALQVVEKLQARLAANPDPKKLLKYLKKLSVLPITVDILVETGVGKTVNSFRKHEQVGNFARDLVAQWKKLVPVERNNEAEDQDFEKSNSRKRPRDVPQQEEEAEGNYQESWQASGSQPYSPEHRQKKHRKLPELERPHKVAHGHERRDERKRCHKVSPPYSSDPESSDYGHVQSPPPSSPHQMYTDLSRSPEMDQEPIVSHPKPGKVHSNTFQDRLGVSHLGEHQGKGAVSQNKPHKSSHKEKRPVDARGDEKSSVMGREKSHKASSKEESRRLLSEDSAKEKLPSSVVKKEKDREGNSLKKKLSPALDVASDNHFKKPKHKDSEKIKSDKNKQSVDSVDSGRGTGDPLPRAKDKVPNNLKAQEGKVRTNSDRKSPGSLPKVEEMDMDDEFEQPTMSFESYLSYDQPRKKKKKVVKTSGTALGEKGLKKKDSKSTSKNLNSAQKLPKANENKSDKLQPAGAEPTRPRKVPTDVLPALPDIPLPAIQTNYRPLPSLELISSFQPKRKAFSSPQEEEKMMTLHQQCIRVLKNNIDSIFEVGGVPYSVLEPVLERCTPDQLYRIEECNHVLIEETDQLWKVHCHRDFKEERPEEYESWREMYLRLQDAREQRLRLLTNNIRSAHANKPKGRQAKMAFVNSVAKPPRDVRRRQEKFGTGGAAVPEKVRIKPAPYTTGSSHVPASNSSSSFHSSPEELAYEGPSTSSAHLAPVASSSVSYDPRKPAVKKIAPMMAKTIKAFKNRFSRR
On to B17, for which the binding result in experiment [1] is listed as “binds”.

B18: Elongin C deletion mutant C(1-83) (other)
chain: MDGEEKTYGGCEGPDAMYVKLISSDGHEFIVKREHALTSGTIKAMLSGPGQFAENETNEVNFREIPSHVLSKVCMYFTYKVRY
As to B18, in the experiment with wild type Elongin B, the binding result is recorded as “binds”.
